Test results from US20030153066A1.

Biological target: HIV-1 Gag Pr55 (wild-type) (HIV-1) (UniProt P03348)
Experiment: cell-based or functional assay

Substance | amount of 750S capsid in HP68-immunodepleted cell-free reactions after reconstitution
HuHP68-GST fusion protein (from UniProt P61221 1-599) | 3 fold
WGHP68-GST fusion protein | 3 fold
